Molecular target: T1, MBP-AIM2 HIN domain (human, UniProt O14862 144-343)
T1 sequence (looked up): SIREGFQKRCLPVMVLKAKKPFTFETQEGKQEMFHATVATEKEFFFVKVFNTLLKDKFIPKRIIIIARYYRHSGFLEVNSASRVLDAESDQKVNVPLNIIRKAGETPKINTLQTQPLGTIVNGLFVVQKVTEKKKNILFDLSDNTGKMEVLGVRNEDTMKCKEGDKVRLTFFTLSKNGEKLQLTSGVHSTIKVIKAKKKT
Assay: fluorescence polarisation

B1: AIM2 PYD domain, wild type (residues 1–107), as used in the FP inhibition assay (domain or fragment, human, UniProt O14862 1-107, looked up)
chain: MESKYKEILLLTGLDNITDEELDRFKFFLSDEFNIATGKLHTANRIQVATLMIQNAGAVSAVMKTIRIFQKLNYMLLAKRLQEEKEKVDKQYKSVTKPKPLSQAEMS
B1 showed an IC50 of 11 µM.
